Test results as given in patent US5646028A, “Alkaline serine protease streptomyces griseus var. alkaliphus having enhanced stability against urea or guanidine” (The Clorox Company, priority 1995, dated 1997).
Where two headings read alike, the source gives them in different places.

What was measured:
[1] = for % activity compared to the non-treated control: 24° C., pH 5.0
pH profile of SGPC = assay type: biochemical; details: 2 mM SAAPFpNA, 10% DMSO
[2] = Wash performance test, beaker-scale grass stain removal from cotton swatches

B1: SGPC: alkaline serine protease from Streptomyces griseus var. alkaliphilus No. 33, apparent molecular weight about 19,000 daltons (protein, UniProt P52320 203-457, looked up)
Streptogrisin-C: ADIRGGDAYYMNGSGRCSVGFSVTRGTQNGFATAGHCGRVGTTTNGVNQQAQGTFQGSTFPGRDIAWVATNANWTPRPLVNGYGRGDVTVAGSTASVVGASVCRSGSTTGWHCGTIQQLNTSVTYPEGTISGVTRTSVCAEPGDSGGSYISGSQAQGVTSGGSGNCSSGGTTYFQPINPLLQAYGLTLVTSGGGTPTDPPTTPPTDSPGGTWAVGTAYAAGATVTYGGATYRCLQAHTAQPGWTPADVPALWQRV
[1]; 2 M Guanidine, 1 hour
  % activity compared to the non-treated control: 125.7%
[1]; 2 M Guanidine, 24 hours
  % activity compared to the non-treated control: 105.7%
[1]; 2 M Urea, 1 hour
  % activity compared to the non-treated control: 103.5%
[1]; 2 M Urea, 24 hours
  % activity compared to the non-treated control: 98.1%
[1]; 2 M to 6 M urea, 24 hr vs 1 hr
  effect on the activity (in words): very little effect
[1]; 4 M Guanidine, 1 hour
  % activity compared to the non-treated control: 130.4%
[1]; 4 M Guanidine, 24 hours
  % activity compared to the non-treated control: 55.8%
[1]; 4 M Urea, 1 hour
  % activity compared to the non-treated control: 118.2%
[1]; 4 M Urea, 24 hours
  % activity compared to the non-treated control: 112.4%
[1]; 6 M Guanidine, 1 hour
  % activity compared to the non-treated control: 98.0%
[1]; 6 M Guanidine, 24 hours
  % activity compared to the non-treated control: 10.1%
[1]; 6 M Urea, 1 hour
  % activity compared to the non-treated control: 116.4%
[1]; 6 M Urea, 24 hours
  % activity compared to the non-treated control: 112.9%
[1]; Guanidine 4 M to 6 M, 24 hr
  effect on the activity (in words): substantial losses of activity
[1]; Guanidine at 2 M, 24 hr
  effect on the activity (in words): slight effect
pH profile of SGPC
  pH optimum (in words): highly alkaline pH optimum
[2]; equal weight of protease in the wash liquor
  effectiveness against grass stain compared with Savinase: more effective than Savinase
[2]; grass stain, cotton swatches, 37° C., powdered detergent 104 g/69 liters, pH 10.5, 0.25 mg protease/500 ml wash liquor
  (delta) % SRE (percent stain removal over a control containing no enzyme): 59.6%
